Patent US20190367957A1
Read-outs that look alike come from different tables or passages of the source.

Tests used:
[1] = molecular target: T1, cytochrome P-450aluC09 (P450 AluC09) from Amycolatopsis lurida NRRL 2430 (Amycolatopsis lurida NRRL 2430); assay: cell-based or functional assay
T1 sequence: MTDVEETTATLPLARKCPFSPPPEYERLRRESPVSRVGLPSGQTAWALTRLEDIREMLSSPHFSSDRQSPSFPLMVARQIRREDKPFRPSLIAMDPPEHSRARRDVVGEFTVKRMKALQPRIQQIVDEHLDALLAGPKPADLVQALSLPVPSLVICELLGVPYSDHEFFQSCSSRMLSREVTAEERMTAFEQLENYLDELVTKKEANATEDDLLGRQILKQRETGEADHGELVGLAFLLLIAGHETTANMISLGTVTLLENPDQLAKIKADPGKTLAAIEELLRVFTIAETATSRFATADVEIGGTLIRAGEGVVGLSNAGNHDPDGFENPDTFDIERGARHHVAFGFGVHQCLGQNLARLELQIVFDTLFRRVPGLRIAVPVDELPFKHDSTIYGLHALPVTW

[2] = molecular target: T1, cytochrome P-450aluC09 (P450 AluC09) from Amycolatopsis lurida NRRL 2430 (Amycolatopsis lurida NRRL 2430); assay: cell-based or functional assay; remark: listed apart in the source

| Binder | % yield of parent-derived products, HO-bosentan 568 m/z (whole cell biocatalysis) [1] [%] | % yield of parent-derived products, 4'-HO-diclofenac 310 m/z (whole cell biocatalysis) [2] [%] | % yield of parent-derived products, 5-HO-diclofenac 310 m/z (whole cell biocatalysis) [2] [%] | % yield of parent-derived products, HO-bosentan 568 m/z (whole cell biocatalysis) [2] [%] |
| --- | --- | --- | --- | --- |
| ferredoxin CamB from Pseudomonas putida ATCC 17453 (protein) SKVVYVSHDGTRRELDVADGVSLMQAAVSNGIYDIVGDCGGSASCATCHVYVNEAFTDKVPAANEREIGMLECVTAELKPNSRLCCQIIMTPELDGIVVDVPDRQW | 21.2 | – | – | – |
| ferredoxin Fd1 from Streptomyces griseus 11796 (protein) TMRVSADRTVCVGAGLCALTAPGVFDQDDDGIVTVLTAEPAADDDRRTAREAGHLCPSGAVRVVEDTE | – | 11.5 | 4.2 | 6.3 |
| ferredoxin AluF03 from Amycolatopsis lurida NRRL 2430 (protein) MKIIADTGKCVGAGQCVLTDPDLFDQSEDDGTVLVLNAEPEGEEAEENARTAVHICPGQALSLA | 27.4 | 60.3 | 23.8 | 52.6 |
